{"source": "patent US20160040149A1", "about": "“Compositions Having Dicamba Decarboxylase Activity and Methods of Use” (priority 2013, published 2016)", "molecules": {"B1": {"name": "478 (protein)", "chain": "MAQGKVALEEHFAIPETLNDAADFVPSEYWKELQHRLLDIQDTRLKLMDKHEIGTMILSLAAPAVQAIPDRVKAIEIARRANDFLAEEVAKRPDRFLAFAALPLQDVDAATEELQRCVNDLGFVGAMVNGFSQEGDGQTPLYYDLPQYRPFWGEVEKLDVPFYLHPRNPLPQDSRIYDGHPWLLGPTWAFAQETAVHALRLMASGLFDEHPRLNIILGHMGEGLPYMMYRIDHRIAWVKAPPDYPAKRRFMDYFLENFHITTSGNFRTQTLIDAILEIGADRILFSTDWPFENIDHAADWFNATSIAEADRVKIGRTNARRLFKLDGR", "modifications": "Dicamba decarboxylase variant"}, "B2": {"name": "486 (protein)", "chain": "B1 chain with T43Q, G54E, P69G, L104M, N119R, G153K, D299A", "modifications": "Dicamba decarboxylase variant"}, "B3": {"name": "487 (protein)", "chain": "B1 chain with T43Q, K46R, G54E, P69G, L104M, N119R, R212G, M220L", "modifications": "Dicamba decarboxylase variant"}, "B4": {"name": "481 (protein)", "chain": "B1 chain with T43Q, K46R, A67S, N119R, R212G, M220L", "modifications": "Dicamba decarboxylase variant"}, "B5": {"name": "502 (protein)", "chain": "B1 chain with T43Q, K46R, G54E, M56T, P69G, G153K", "modifications": "Dicamba decarboxylase variant"}, "B6": {"name": "501 (protein)", "chain": "B1 chain with N19Q, T43Q, G54E, A67S, L104M, N119R, G153K, R212G", "modifications": "Dicamba decarboxylase variant"}, "B7": {"name": "482 (protein)", "chain": "B1 chain with T43Q, K46R, G54E, P69G, L104M, N119R, R212G, D299A", "modifications": "Dicamba decarboxylase variant"}, "B8": {"name": "504 (protein)", "chain": "B1 chain with V107P, K157Q", "modifications": "Dicamba decarboxylase variant"}, "B9": {"name": "488 (protein)", "chain": "B1 chain with D23G, T43Q, K46R, A67S, P69G, R212G, M220L", "modifications": "Dicamba decarboxylase variant"}, "B10": {"name": "489 (protein)", "chain": "B1 chain with T43Q, K46R, G54E, A67S, L104M, M220L", "modifications": "Dicamba decarboxylase variant"}, "B11": {"name": "483 (protein)", "chain": "B1 chain with D23G, T43Q, P69G, L104M, N119R, G153K", "modifications": "Dicamba decarboxylase variant"}, "B12": {"name": "498 (protein)", "chain": "B1 chain with T43Q, K46R, G54E, P69G, N119R, G153K, R212G", "modifications": "Dicamba decarboxylase variant"}, "B13": {"name": "497 (protein)", "chain": "B1 chain with T43Q, K46R, G54E, A67S, L104M, G153K, R212G, M220L", "modifications": "Dicamba decarboxylase variant"}, "B14": {"name": "484 (protein)", "chain": "B1 chain with T43Q, K46R, G54E, P69G, G153K, R212G, M220L, D299A", "modifications": "Dicamba decarboxylase variant"}, "B15": {"name": "473 (protein)", "chain": "MAQGKVALEEHFAIPETLQDAAGFVPGDYWKELQHRLLDIQDTRLKLMDKHEIETMILSLAAPAVQAIPDRRKAIEIARRANDFLAEEVAKRPDRFLAFAALPLQDPDAATEELQRCVRDLGFVGAMVNGFSQEGDGQTPLYYDLPQYRPFWGEVEKLDVPFYLHPRNPLPQDSRIYDGHPWLLGPTWAFAQETAVHALRLMASGLFDEHPGLNIILGHLGEGLPYMMYRIDHRIAWVKAPPDYPAKRRFMDYFLENFHITTSGNFRTQTLIDAILEIGADRILFSTDWPFENIDHAAAWFNATSIAEADRVKIGRTNARRLFKLDGR", "modifications": "Dicamba decarboxylase variant"}, "B16": {"name": "474 (protein)", "chain": "B15 chain with R119N, G212R, L255N, A299D", "modifications": "Dicamba decarboxylase variant"}, "B17": {"name": "493 (protein)", "chain": "B1 chain with D23G", "modifications": "Dicamba decarboxylase variant"}, "B18": {"name": "500 (protein)", "chain": "B15 chain with Q19N, G27S, D28E, T43Q, K46R, P69G, R72V, L104M, P107V, G153K", "modifications": "Dicamba decarboxylase variant"}, "B19": {"name": "491 (protein)", "chain": "B1 chain with D23G, G54E, V72R, V107P, E209V", "modifications": "Dicamba decarboxylase variant"}, "B20": {"name": "479 (protein)", "chain": "B1 chain with N19Q", "modifications": "Dicamba decarboxylase variant"}, "B21": {"name": "490 (protein)", "chain": "B1 chain with D23G, V107P", "modifications": "Dicamba decarboxylase variant"}, "B22": {"name": "480 (protein)", "chain": "B1 chain with D23G, T43Q, K46R, G54E, A67S, R212G, M220L, D299A", "modifications": "Dicamba decarboxylase variant"}, "B23": {"name": "495 (protein)", "chain": "B1 chain with D23G, G54E, V72R", "modifications": "Dicamba decarboxylase variant"}, "B24": {"name": "492 (protein)", "chain": "B1 chain with N19Q, G54E", "modifications": "Dicamba decarboxylase variant"}, "B25": {"name": "505 (protein)", "chain": "B1 chain with N19Q, G54E, V72R", "modifications": "Dicamba decarboxylase variant"}, "B26": {"name": "499 (protein)", "chain": "B1 chain with T43Q, G54E, A67S, N119R, G153K, M220L, D299A", "modifications": "Dicamba decarboxylase variant"}, "B27": {"name": "508 (protein)", "chain": "B1 chain with D23G, G54E, V107P, M127L", "modifications": "Dicamba decarboxylase variant"}, "B28": {"name": "476 (protein)", "chain": "B15 chain with R119N, Q133V, G153K, L220M, L255N", "modifications": "Dicamba decarboxylase variant"}, "B29": {"name": "506 (protein)", "chain": "B1 chain with W30L, G54E, V107P", "modifications": "Dicamba decarboxylase variant"}, "B30": {"name": "477 (protein)", "chain": "B1 chain with G54E", "modifications": "Dicamba decarboxylase variant"}, "B31": {"name": "475 (protein)", "chain": "B15 chain with Q19N, G23D, L104M, R119N, Q133V, G153K, L220M, V312L", "modifications": "Dicamba decarboxylase variant"}, "B32": {"name": "496 (protein)", "chain": "B1 chain with G54E, V72R", "modifications": "Dicamba decarboxylase variant"}, "B33": {"name": "503 (protein)", "chain": "B1 chain with V107P", "modifications": "Dicamba decarboxylase variant"}, "B34": {"name": "494 (protein)", "chain": "B1 chain with D23G, G54E", "modifications": "Dicamba decarboxylase variant"}, "B35": {"name": "485 (protein)", "chain": "B1 chain with K46R, G54E, A67S, N119R, G153K, R212G, M220L", "modifications": "Dicamba decarboxylase variant"}, "B36": {"name": "507 (protein)", "chain": "B1 chain with N19Q, G54E, D94G", "modifications": "Dicamba decarboxylase variant"}, "B37": {"name": "510 (protein)", "chain": "MAQGKVALEEHFAIPETLQDAAGFVPGDYWKELQHRLLDIQDTRLKEMDRHEIGTMVLSLAAPAVQAIPDRRKAIEIARRANDFLAEEVAKRPDRFLAFAALPLQDVDAATEELQRCVNDLGFVGAMVNGFSQEGDGQTPLYYDLPQYRPFWGEVEKLDVPFYLHPRNPLPQDARIYDGHPWLLGPTWAFAQETAVHALRLMASGLFDEHPRLNIILGHMGEGLPYMMYRIDHRIAWVKAPPDYPAKRRFMDYFLENFHITTSGNFRTQTLIDAILEIGADRILFSTDWPFENIDHAADWFAATSIAEADRVKIGRTNARRLFKLDGS", "modifications": "Dicamba decarboxylase variant"}, "B38": {"name": "512 (protein)", "chain": "B37 chain with R50K, E52G, N119A, A174S, A302N, E308D, V312D, S328R", "modifications": "Dicamba decarboxylase variant"}, "B39": {"name": "511 (protein)", "chain": "B37 chain with R50K, E52G, K73Q, I77L, A174S, A302N, S328R", "modifications": "Dicamba decarboxylase variant"}, "B40": {"name": "514 (protein)", "chain": "B37 chain with T43E, R50K, V57I, I77L, A174S, A302N, S328R", "modifications": "Dicamba decarboxylase variant"}, "B41": {"name": "513 (protein)", "chain": "B37 chain with R50K, K73Q, I77L, A174S, A302N, S328R", "modifications": "Dicamba decarboxylase variant"}, "B42": {"name": "509 (protein)", "chain": "B37 chain with R50K, V57I, A174S, A302N, S328R", "modifications": "Dicamba decarboxylase variant"}}, "note": "Changes are numbered by the printed parent chain."}
{"assay": "DNA shuffling libraries: 14CO2 capturing assay in 384-well format, fold activity of backbone (Megatable 2)", "settings": "relative to backbone SEQ ID NO: 380 (DDEC0301)", "units": {"Fold Activity": "fold"}}
{"molecule": "B1", "Fold Activity": 1.9}
{"molecule": "B2", "Fold Activity": 0.8}
{"molecule": "B3", "Fold Activity": 1.1}
{"molecule": "B4", "Fold Activity": 1.1}
{"molecule": "B5", "Fold Activity": 1.0}
{"molecule": "B6", "Fold Activity": 1.5}
{"molecule": "B7", "Fold Activity": 0.9}
{"molecule": "B8", "Fold Activity": 2.3}
{"molecule": "B9", "Fold Activity": 1.4}
{"molecule": "B10", "Fold Activity": 1.4}
{"molecule": "B11", "Fold Activity": 1.4}
{"molecule": "B12", "Fold Activity": 1.3}
{"molecule": "B13", "Fold Activity": 1.0}
{"molecule": "B14", "Fold Activity": 0.9}
{"molecule": "B15", "Fold Activity": 1.9}
{"molecule": "B16", "Fold Activity": 1.6}
{"molecule": "B17", "Fold Activity": 2.2}
{"molecule": "B18", "Fold Activity": 0.9}
{"molecule": "B19", "Fold Activity": 2.1}
{"molecule": "B20", "Fold Activity": 1.4}
{"molecule": "B21", "Fold Activity": 2.2}
{"molecule": "B22", "Fold Activity": 1.1}
{"molecule": "B23", "Fold Activity": 2.2}
{"molecule": "B24", "Fold Activity": 2.3}
{"molecule": "B25", "Fold Activity": 2.0}
{"molecule": "B26", "Fold Activity": 0.9}
{"molecule": "B27", "Fold Activity": 1.0}
{"molecule": "B28", "Fold Activity": 1.8}
{"molecule": "B29", "Fold Activity": 1.1}
{"molecule": "B30", "Fold Activity": 2.1}
{"molecule": "B31", "Fold Activity": 1.2}
{"molecule": "B32", "Fold Activity": 2.2}
{"molecule": "B33", "Fold Activity": 2.1}
{"molecule": "B34", "Fold Activity": 1.9}
{"molecule": "B35", "Fold Activity": 0.9}
{"molecule": "B36", "Fold Activity": 1.8}
{"assay": "DNA shuffling libraries: 14CO2 capturing assay in 384-well format, fold activity of backbone (Megatable 2)", "settings": "relative to backbone SEQ ID NO: 509 (DDEC0810)", "units": {"Fold Activity": "fold"}}
{"molecule": "B37", "Fold Activity": 1.0}
{"molecule": "B38", "Fold Activity": 1.2}
{"molecule": "B39", "Fold Activity": 1.3}
{"molecule": "B40", "Fold Activity": 1.1}
{"molecule": "B41", "Fold Activity": 1.2}
{"molecule": "B42", "Fold Activity": 1.0}
